Test results taken from US20090130195A1 (UNIVERSITY OF SOUTH FLORIDA, published 2009).

Molecular target: T1, protein kinase C-iota (PKC-ι) (human, UniProt P41743 2-596)
T1 construct: Endogenous protein immunoprecipitated or blotted from cell lysates; also called PKC-i
T1 sequence (looked up): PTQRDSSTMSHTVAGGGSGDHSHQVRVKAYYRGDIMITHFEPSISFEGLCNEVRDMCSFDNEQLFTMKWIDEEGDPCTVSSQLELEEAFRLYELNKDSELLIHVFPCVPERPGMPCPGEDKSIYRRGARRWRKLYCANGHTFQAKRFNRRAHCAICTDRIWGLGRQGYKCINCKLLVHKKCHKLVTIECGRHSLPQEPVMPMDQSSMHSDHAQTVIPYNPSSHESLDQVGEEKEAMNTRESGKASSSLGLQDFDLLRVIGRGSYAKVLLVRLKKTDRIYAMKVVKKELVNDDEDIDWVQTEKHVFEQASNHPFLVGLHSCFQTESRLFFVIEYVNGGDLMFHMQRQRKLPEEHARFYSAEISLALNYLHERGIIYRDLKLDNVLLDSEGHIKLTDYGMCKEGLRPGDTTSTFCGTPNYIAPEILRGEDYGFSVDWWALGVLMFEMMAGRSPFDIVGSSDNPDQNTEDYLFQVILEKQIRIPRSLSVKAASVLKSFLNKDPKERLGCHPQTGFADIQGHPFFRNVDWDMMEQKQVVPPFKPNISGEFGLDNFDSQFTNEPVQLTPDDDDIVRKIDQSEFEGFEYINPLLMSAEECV
Test: Immunoprecipitation of Bad (200 µg protein) from RWPE-1 and DU-145 cells treated with control siRNA or PKC-ι siRNA, then immunoblot
Procedure: PKC-ι is overexpressed in non-small cell lung cancer cells (NSCLC) and it has been reported to phosphorylate Bad at multiple sites for cell survival. To test whether PKC-ι can directly phosphorylate endogenous Bad, Bad protein (200 μg) was immunoprecipitated from control siRNA and PKC-ι siRNA treated (incubation time 24 h) RWPE-1 and DU-145 cells. Normal rabbit IgG agarose conjugate (5 μg) was used as a negative control.
A similar experiment was performed with DU-145 (FIG. 8A, third column). First, we investigated if PKC-ι associates with Bad. […] However, we observed an increase in phosphorylation of Bad ser-112, no significant changes in p-Bad (ser-136) and p-Bad (ser-155).

binding result: no binding
B1: Bad (other, UniProt Q92934 1-168, looked up)
chain: MFQIPEFEPSEQEDSSSAERGLGPSPAGDGPSGSGKHHRQAPGLLWDASHQQEQPTSSSHHGGAGAVEIRSRHSSYPAGTEDDEGMGEEPSPFRGRSRSAPPNLWAAQRYGRELRRMSDEFVDSFKKGLPRPKSAGTATQMRQSSSWTRVFQSWWDRNLGRGSSAPSQ
notes: Endogenous protein from human prostate cell lines; Its phosphorylation (ser-112, ser-136, ser-155) varies with cell line and treatment; also called Bad protein
